Assays:
[1] = biological target: T1, human CD39 expressed on cells (human, UniProt P49961 1-510); experiment: flow cytometry on Hek-293T cells transfected with wild-type CD39 (unstained cells, US: 10,3) [panel WT]
T1 construct: On CHO transfectants, HEK-293T transfectants (wild type), Ramos lymphoma cells or monocyte-derived dendritic cells, as named under assay; also called huCD39; CHO-huCD39
T1 sequence: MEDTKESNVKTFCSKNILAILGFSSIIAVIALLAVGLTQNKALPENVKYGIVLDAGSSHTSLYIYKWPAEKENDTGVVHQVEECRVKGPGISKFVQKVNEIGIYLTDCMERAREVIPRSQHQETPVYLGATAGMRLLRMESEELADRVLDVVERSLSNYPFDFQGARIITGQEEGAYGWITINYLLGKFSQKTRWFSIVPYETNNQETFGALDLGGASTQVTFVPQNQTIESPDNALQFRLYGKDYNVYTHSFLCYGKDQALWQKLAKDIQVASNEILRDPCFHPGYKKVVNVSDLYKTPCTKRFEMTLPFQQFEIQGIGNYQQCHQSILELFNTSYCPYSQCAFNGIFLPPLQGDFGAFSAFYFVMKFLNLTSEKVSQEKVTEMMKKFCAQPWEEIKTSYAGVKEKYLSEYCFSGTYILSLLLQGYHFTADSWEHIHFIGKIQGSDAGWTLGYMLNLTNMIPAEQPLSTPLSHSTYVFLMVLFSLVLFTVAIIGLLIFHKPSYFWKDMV

CD39 mutant 5 [2] = biological target: T2, CD39 mutant 5 (human, UniProt P49961 1-510); experiment: flow cytometry on Hek-293T cells transfected with CD39 mutant 5 [panel M5]
T2 construct: Expressed on transfected Hek-293T cells; also called M5
T2 chain: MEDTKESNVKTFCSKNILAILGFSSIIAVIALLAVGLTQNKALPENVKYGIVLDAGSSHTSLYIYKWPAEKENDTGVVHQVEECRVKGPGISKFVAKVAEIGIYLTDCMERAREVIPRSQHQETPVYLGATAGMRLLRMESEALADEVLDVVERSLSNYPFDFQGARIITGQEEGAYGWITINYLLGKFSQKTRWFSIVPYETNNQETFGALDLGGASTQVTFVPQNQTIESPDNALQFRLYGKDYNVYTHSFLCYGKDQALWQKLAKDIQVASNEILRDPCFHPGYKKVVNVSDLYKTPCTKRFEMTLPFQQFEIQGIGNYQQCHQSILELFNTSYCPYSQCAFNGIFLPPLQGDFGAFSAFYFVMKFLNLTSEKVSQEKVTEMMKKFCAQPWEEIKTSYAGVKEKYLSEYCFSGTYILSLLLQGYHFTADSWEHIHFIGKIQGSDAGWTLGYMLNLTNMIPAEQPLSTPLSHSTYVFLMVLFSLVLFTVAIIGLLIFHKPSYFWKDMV

CD39 mutant 19 [3] = biological target: T3, CD39 mutant 19 (human, UniProt P49961 1-510); experiment: flow cytometry on Hek-293T cells transfected with CD39 mutant 19 [panel M19]
T3 construct: Expressed on transfected Hek-293T cells; also called M19
T3 chain: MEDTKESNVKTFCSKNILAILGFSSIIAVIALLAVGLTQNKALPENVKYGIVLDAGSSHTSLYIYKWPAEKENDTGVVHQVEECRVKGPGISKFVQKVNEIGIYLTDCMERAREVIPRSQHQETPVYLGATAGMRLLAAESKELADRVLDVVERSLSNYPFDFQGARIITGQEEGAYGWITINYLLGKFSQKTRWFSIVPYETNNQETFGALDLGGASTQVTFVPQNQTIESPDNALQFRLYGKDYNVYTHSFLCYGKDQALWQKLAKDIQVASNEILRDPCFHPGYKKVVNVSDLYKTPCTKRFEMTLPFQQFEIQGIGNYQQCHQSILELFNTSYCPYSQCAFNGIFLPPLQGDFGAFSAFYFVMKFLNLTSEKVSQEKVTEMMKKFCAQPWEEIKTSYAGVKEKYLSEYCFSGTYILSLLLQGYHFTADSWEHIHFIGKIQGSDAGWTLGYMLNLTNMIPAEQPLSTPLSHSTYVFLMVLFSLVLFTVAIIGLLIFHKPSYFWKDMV

CD39 mutant 15 [4] = biological target: T4, CD39 mutant 15 (human, UniProt P49961 1-510); experiment: flow cytometry on Hek-293T cells transfected with CD39 mutant 15 [panel M15]
T4 construct: Expressed on transfected Hek-293T cells; also called M15
T4 chain: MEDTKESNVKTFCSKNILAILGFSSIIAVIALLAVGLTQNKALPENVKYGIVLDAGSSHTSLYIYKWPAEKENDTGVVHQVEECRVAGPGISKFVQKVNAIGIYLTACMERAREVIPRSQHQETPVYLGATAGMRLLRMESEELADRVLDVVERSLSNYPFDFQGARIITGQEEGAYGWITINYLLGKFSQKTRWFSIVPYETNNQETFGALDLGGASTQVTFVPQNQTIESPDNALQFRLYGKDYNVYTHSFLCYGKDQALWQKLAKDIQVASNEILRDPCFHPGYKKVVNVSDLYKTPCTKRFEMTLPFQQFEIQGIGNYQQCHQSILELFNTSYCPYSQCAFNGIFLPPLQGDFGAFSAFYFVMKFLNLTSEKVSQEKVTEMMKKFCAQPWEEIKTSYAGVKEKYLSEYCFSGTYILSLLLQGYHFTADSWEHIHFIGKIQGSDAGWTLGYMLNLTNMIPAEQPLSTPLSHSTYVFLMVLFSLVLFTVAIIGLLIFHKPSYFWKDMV

CD39 mutant 15 [5] = biological target: T4, CD39 mutant 15; experiment: flow cytometry on transfected Hek-293T cells
Protocol: (§1) Mutants were transfected in Hek-293T cells, as shown in the table 1, using numbering of SEQ ID NO: 1. Dose-ranges of test antibodies (10-2.5-0.625-0.1563-0.0391-0.0098-0.0024-0.0006 μg/ml) are tested on the 20 generated mutants by flow cytometry.

CD39 mutant 19 [6] = biological target: T3, CD39 mutant 19; experiment: flow cytometry on transfected Hek-293T cells
Protocol: as §1

CD39 mutant 5 [7] = biological target: T2, CD39 mutant 5; experiment: flow cytometry on transfected Hek-293T cells
Protocol: as §1

CD39 mutant 11 = biological target: T5, CD39 mutant 11 (human, UniProt P49961 1-510); experiment: flow cytometry on transfected Hek-293T cells
T5 construct: Expressed on transfected Hek-293T cells
T5 sequence: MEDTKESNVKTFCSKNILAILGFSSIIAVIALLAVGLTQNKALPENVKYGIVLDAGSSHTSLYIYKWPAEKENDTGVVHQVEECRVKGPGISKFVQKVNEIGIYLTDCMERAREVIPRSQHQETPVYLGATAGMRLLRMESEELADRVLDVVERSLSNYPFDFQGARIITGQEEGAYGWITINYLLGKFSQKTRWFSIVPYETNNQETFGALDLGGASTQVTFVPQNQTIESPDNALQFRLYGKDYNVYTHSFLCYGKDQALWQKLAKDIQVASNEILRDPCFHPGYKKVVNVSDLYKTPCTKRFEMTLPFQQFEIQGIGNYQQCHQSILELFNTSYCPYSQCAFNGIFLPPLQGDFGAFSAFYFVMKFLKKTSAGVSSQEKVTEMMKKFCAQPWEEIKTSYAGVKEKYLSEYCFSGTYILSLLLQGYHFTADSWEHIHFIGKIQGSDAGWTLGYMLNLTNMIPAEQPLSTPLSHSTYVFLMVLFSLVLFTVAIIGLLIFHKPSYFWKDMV
Protocol: as §1

Binder | Median : Comp-Alexa Fluor 647-A [1] | binding result (CD39 mutant 5 [2]) | binding result (CD39 mutant 19 [3]) | binding result (CD39 mutant 15 [4]) | binding result (CD39 mutant 15 [5]) | binding result (CD39 mutant 19 [6]) | binding result (CD39 mutant 5 [7]) | binding result (CD39 mutant 11)
antibody I-396 (antibody, V domains shown, Purified from hybridoma supernatant with protein A for screening) VH: EVQLQQSGAELVKPGASVKLSCIVSGFNIKDTYINWVKQRPEQGLEWIGRIDPANGNTKYDPKFQGKATMTSDTSSNTAYLHLSSLTSDDSAVYYCARWGYDDEEADYFDSWGQGTTLTVSS VL: not shown | 4340 | binds | binds | no binding |  |  |  | 
antibody I-395 (antibody, V domains shown, Purified from hybridoma supernatant with protein A for screening) VH: EVQLQQSGPELVKPGASVRMSCKASGYTFTDYNMHWVKKNHGKGLEWIGYINPNNGGTTYNQKFKGKATLTVNTSSKTAYMELRSLTSEDSAVYYCTRGGTRFASWGQGTLVTVSA VL: not shown | 4240 | no binding | no binding |  |  |  |  | 
antibody I-399 (antibody, V domains shown, Purified from hybridoma supernatant with protein A for screening) VH: PVQLQQPGAEVVMPGASVKLSCKASGYTFTSFWMNWMRQRPGQGLEWIGEIDPSDFYTNSNQRFKGKATLTVDKSSSTAYMQLSSLTSEDSAVYFCARGDFGWYFDVWGTGTSVTVSS VL: EIVLTQSPTTMTSSPGEKITFTCSASSSINSNYLHWYQQKPGFSPKLLIYRTSNLASGVPTRFSGSGSGTSYSLTIGTMEAEDVATYYCQQGSSLPRTFGGGTKLEIK |  |  |  |  | binds | binds | binds | no binding (tested: 10 µg/ml (top of dose range))

Source: patent US20190218304A1 (INNATE PHARMA, published 2019)
